Laboratory results: US20050182003A1, “Drugs to be used in gene therapy for recessively transmitted genetic disease” (priority 2002, published 2005)

System: mouse
Test: suppression of immune response by oral tolerance
Format: in vivo
Settings: administered orally to a mouse
Text: As for a method for suppressing antigen-specific immune response, various methods have been already reported. […] Therefore, they tried to suppress the anti-Dsg3 antibody generation in Dsg3^+/+ graft strain by inhibiting the binding of CD40 and CD40L, which are playing an important role to the establishment of immune response. CD40L is a type II cell membrane-penetrating protein, expressed transiently in activated T cells having received antigen stimulation and CD40, its receptor, is expressed in B cells, dendritic cells, monocyte/macrophage, endothelial cells and the like. The CD40-CD40L binding not only plays an important role in cellular immunity by promoting cytokine production and the like, but it is clarified to be quite important for proliferation of B cells, antibody production and the like. Thus, attempts have been made to suppress immune response in autoimmune diseases, organ transplantation and the like by using anti-CD40L monoclonal antibody inhibiting this binding. As mentioned above, in Dsg3^+/+ graft strain, anti-Dsg3 IgG antibody generation, which is detected in serum by ELISA method, is observed approximately two weeks after skin graft, in all mice that underwent skin graft.

B1: Dsg3 protein: Dsg3 protein prepared with the use of E. Coli expression vector, administered orally (protein, UniProt P32926 50-999, looked up)
Desmoglein-3: EWVKFAKPCREGEDNSKRNPIAKITSDYQATQKITYRISGVGIDQPPFGIFVVDKNTGDINITAIVDREETPSFLITCRALNAQGLDVEKPLILTVKILDINDNPPVFSQQIFMGEIEENSASNSLVMILNATDADEPNHLNSKIAFKIVSQEPAGTPMFLLSRNTGEVRTLTNSLDREQASSYRLVVSGADKDGEGLSTQCECNIKVKDVNDNFPMFRDSQYSARIEENILSSELLRFQVTDLDEEYTDNWLAVYFFTSGNEGNWFEIQTDPRTNEGILKVVKALDYEQLQSVKLSIAVKNKAEFHQSVISRYRVQSTPVTIQVINVREGIAFRPASKTFTVQKGISSKKLVDYILGTYQAIDEDTNKAASNVKYVMGRNDGGYLMIDSKTAEIKFVKNMNRDSTFIVNKTITAEVLAIDEYTGKTSTGTVYVRVPDFNDNCPTAVLEKDAVCSSSPSVVVSARTLNNRYTGPYTFALEDQPVKLPAVWSITTLNATSALLRAQEQIPPGVYHISLVLTDSQNNRCEMPRSLTLEVCQCDNRGICGTSYPTTSPGTRYGRPHSGRLGPAAIGLLLLGLLLLLLAPLLLLTCDCGAGSTGGVTGGFIPVPDGSEGTIHQWGIEGAHPEDKEITNICVPPVTANGADFMESSEVCTNTYARGTAVEGTSGMEMTTKLGAATESGGAAGFATGTVSGAASGFGAATGVGICSSGQSGTMRTRHSTGGTNKDYADGAISMNFLDSYFSQKAFACAEEDDGQEANDCLLIYDNEGADATGSPVGSVGCCSFIADDLDDSFLDSLGPKFKKLAEISLGVDGEGKEVQPPSKDSGYGIESCGHPIEVQQTGFVKCQTLSGSQGASALSTSGSVQPAVSIPDPLQHGNYLVTETYSASGSLVQPSTAGFDPLLTQNVIVTERVICPISSVPGNLAGPTQLRGSHTMLCTEDPCSRLI
  suppression of immune response by oral tolerance: failed to obtain successful results
